One molecule from patent US20100303785A1 (RAMOT AT TEL AVIV UNIVERSITY, published 2010) can be followed below.

The test addresses T1, Recombinant tau containing three tubulin binding repeats (3R) (Homo sapiens, UniProt P10636-5 1-410, limits assumed).
T1 construct: also called Tau protein 3R; 3R-tau
The test is described as follows: dot blot: peptide on nitrocellulose, incubated with 3R tau, detected with tau5 antibody.

T1 sequence (P10636 other isoform, or with tags, fused parts or gaps limits assumed): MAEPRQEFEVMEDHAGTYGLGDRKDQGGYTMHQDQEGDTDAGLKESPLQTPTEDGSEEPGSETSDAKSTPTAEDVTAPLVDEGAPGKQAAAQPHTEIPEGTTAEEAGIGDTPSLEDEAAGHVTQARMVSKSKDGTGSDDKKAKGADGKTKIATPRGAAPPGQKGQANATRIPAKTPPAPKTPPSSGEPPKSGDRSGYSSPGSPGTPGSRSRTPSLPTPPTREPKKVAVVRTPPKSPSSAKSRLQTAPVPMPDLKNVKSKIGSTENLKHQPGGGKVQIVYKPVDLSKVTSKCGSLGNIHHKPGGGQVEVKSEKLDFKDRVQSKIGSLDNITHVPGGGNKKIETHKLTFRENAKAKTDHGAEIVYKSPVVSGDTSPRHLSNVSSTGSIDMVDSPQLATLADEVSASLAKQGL
Description: The membrane was further incubated with 2 μM tau-three microtubule binding domain repeats (1.5 hr, room temperature). The non-specific sites were blocked by soaking in a blocking solution (10 mM Tris, 6 mM NaCl, 0.05% Tween 20) that was supplemented with 5% low-fat milk (1 hr at room temperature). The membrane was incubated with primary antibody (tau5 antibody 1:1000), dissolved in 5% milk in blocking solution (12 hours at 4 C). The membrane was then washed three times with the blocking solution (3×10 min), incubated with secondary antibody conjugated with horseradish peroxidase (HRP) (1 hr at room temperature) and washed again three times with blocking solution (10 min×3). The membrane was incubated with ECL reagent (Western blotting detection system; Amersham Biosciences) for 1 min, covered and exposed Biomax Light Film (Kodak, Rochester, N.Y., USA).

B1: vasoactive intestinal peptide VIP (peptide, UniProt P01282 125-152, looked up)
peptide: HSDAVFTDNYTRLRKQMAVKKYLNSILN
notes: Negative control peptide in the dot blot; the assay used the peptide itself; also called VIP peptide; control peptide
As to B1, the binding result is “no binding”.
